Assay results reported in PMC9482650, “Quantitative fragmentomics allow affinity mapping of interactomes” (Nature Communications, 2022).

How the values were obtained:
Assay in all cases: holdup assay
Design in all cases: key: below the threshold = too weak to quantify, mostly under pKd 3.1 to 4
[1] = molecular target: AHNAK1, Q09666
[2] = molecular target: T1, APBA2_2, Q99767
T1 sequence (Q99767 654-744, limits assumed, looked up): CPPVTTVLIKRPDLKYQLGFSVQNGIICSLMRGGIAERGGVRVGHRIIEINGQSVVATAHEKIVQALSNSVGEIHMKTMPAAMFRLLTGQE

[3] = molecular target: T2, ARHGAP21, Q5T5U3
T2 sequence (Q5T5U3 45-169, limits assumed, looked up): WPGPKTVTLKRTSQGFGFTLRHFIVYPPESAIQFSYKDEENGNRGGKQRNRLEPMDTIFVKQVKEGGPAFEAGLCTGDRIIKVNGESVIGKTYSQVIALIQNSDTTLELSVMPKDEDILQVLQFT

[4] = molecular target: T3, ARHGEF11, O15085
T3 sequence (O15085 42-136, limits assumed, looked up): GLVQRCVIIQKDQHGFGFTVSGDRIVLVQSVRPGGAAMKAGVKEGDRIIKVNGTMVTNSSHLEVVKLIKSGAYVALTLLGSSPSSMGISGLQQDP

[5] = molecular target: ARHGEF12, Q9NZN5-2
Sequence of ARHGEF12, Q9NZN5-2 (Q9NZN5 other isoform, or with tags, fused parts or gaps): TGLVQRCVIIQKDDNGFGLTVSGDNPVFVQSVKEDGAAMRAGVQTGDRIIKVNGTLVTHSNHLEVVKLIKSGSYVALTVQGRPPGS

[6] = molecular target: T4, DFNB31_1, Q9P202
T4 sequence (Q9P202 135-233, limits assumed, looked up): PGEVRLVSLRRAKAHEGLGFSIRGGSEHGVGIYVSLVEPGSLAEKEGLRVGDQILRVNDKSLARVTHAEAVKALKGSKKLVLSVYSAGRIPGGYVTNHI

[7] = molecular target: T5, DFNB31_2, Q9P202
T5 sequence (Q9P202 274-371, limits assumed, looked up): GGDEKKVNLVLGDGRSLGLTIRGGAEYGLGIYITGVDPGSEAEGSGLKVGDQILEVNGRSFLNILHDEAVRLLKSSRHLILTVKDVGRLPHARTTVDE

[8] = molecular target: T6, DFNB31_3, Q9P202
T6 sequence (Q9P202 811-907, limits assumed, looked up): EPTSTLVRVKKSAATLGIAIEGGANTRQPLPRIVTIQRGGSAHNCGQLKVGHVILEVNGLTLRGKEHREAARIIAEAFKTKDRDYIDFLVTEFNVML

[9] = molecular target: DLG1_2, Q12959
Sequence of DLG1_2, Q12959 (Q12959 314-412): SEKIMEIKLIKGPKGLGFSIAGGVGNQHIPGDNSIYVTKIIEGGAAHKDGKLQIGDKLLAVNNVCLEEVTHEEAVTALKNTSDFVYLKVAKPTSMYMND

[10] = molecular target: T7, DLG3_2, Q92796
T7 sequence (Q92796 221-321, limits assumed, looked up): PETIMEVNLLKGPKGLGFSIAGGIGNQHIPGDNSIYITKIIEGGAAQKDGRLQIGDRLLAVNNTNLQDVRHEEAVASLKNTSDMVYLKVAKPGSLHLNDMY

[11] = molecular target: GIPC2, Q8TF65
Sequence of GIPC2, Q8TF65 (Q8TF65 112-203): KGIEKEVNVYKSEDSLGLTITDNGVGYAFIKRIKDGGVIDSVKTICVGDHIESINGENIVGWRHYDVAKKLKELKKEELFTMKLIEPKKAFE

[12] = molecular target: GORASP1, Q9BQQ3
Sequence of GORASP1, Q9BQQ3 (Q9BQQ3 1-208): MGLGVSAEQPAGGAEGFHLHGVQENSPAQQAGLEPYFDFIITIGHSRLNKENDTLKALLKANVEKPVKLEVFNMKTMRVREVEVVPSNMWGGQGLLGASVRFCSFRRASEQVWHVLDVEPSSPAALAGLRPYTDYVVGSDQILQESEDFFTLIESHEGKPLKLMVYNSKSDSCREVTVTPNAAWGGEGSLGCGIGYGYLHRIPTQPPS

[13] = molecular target: GRIP2_3, Q9C0E4
Sequence of GRIP2_3, Q9C0E4 (Q9C0E4 238-339): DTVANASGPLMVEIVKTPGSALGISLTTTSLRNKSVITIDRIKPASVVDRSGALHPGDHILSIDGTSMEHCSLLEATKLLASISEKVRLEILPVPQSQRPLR

[14] = molecular target: GRIP2_6, Q9C0E4
Sequence of GRIP2_6, Q9C0E4 (Q9C0E4 648-740): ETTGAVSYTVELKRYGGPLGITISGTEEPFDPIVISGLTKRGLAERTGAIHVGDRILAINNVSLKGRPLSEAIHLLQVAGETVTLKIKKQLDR

[15] = molecular target: GRIP2_7, Q9C0E4
Sequence of GRIP2_7, Q9C0E4 (Q9C0E4 934-1023): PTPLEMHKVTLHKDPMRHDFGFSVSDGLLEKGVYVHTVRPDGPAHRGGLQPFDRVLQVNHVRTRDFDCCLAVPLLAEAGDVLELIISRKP

[16] = molecular target: T8, HTRA3, P83110
T8 sequence (P83110 354-453, limits assumed, looked up): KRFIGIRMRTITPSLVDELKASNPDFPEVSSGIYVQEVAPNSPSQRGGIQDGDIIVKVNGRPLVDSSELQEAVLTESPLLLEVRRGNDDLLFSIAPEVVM

[17] = molecular target: T9, LRRC7, Q96NW7
T9 sequence (Q96NW7 1440-1537, limits assumed, looked up): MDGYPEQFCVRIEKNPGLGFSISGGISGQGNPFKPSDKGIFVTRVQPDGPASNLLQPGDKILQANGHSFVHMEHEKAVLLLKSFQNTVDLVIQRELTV

[18] = molecular target: MAGI2_2, Q86UL8
Sequence of MAGI2_2, Q86UL8 (Q86UL8 410-522): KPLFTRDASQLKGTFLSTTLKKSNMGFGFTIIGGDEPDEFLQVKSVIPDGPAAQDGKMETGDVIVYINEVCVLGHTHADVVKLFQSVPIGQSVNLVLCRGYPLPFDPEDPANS

[19] = molecular target: MAGI2_5, Q86UL8
Sequence of MAGI2_5, Q86UL8 (Q86UL8 915-1017): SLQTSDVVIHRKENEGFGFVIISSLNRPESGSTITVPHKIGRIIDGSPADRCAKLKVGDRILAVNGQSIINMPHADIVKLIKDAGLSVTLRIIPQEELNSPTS

[20] = molecular target: T10, PCLO, Q9Y6V0
T10 sequence (Q9Y6V0 4491-4600, limits assumed, looked up): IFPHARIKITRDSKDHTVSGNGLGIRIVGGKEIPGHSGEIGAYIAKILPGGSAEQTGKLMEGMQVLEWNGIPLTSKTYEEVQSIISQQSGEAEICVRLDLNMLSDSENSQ

[21] = molecular target: T11, SYNJ2BP, P57105
T11 sequence (P57105 8-110, limits assumed, looked up): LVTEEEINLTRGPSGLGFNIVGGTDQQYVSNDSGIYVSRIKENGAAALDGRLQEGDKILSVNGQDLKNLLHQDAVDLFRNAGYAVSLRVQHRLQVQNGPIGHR

[22] = molecular target: T12, TJP3_3, O95049
T12 sequence (O95049 375-456, limits assumed, looked up): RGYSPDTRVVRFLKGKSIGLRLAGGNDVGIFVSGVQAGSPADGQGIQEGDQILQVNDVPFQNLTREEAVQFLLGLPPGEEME

[23] = molecular target: T13, TX1BP3, O14907
T13 sequence (O14907 10-122, limits assumed, looked up): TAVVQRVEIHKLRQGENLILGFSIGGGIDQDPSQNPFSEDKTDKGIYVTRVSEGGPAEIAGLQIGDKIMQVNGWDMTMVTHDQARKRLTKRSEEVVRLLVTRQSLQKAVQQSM

[24] = plain residues with an end cap or a label only (N-terminal biotin on a linker: ado-ado, ttds)
[25] = plain residues with an end cap or a label only (N-terminal biotin on a linker: ttds)
[26] = plain residues with an end cap or a label only (N-terminal biotin on a linker: ado-ado)

Sequence of AHNAK1, Q09666 (Q09666 4-100): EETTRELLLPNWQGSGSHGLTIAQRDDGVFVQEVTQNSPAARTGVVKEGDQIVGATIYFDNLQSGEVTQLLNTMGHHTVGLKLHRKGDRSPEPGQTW

SNAKAVETDV [KCNA4, P22459]
pKd [1, 24]: below the threshold | pKd [2, 24]: below the threshold | pKd [3, 24]: below the threshold | pKd [4, 24]: 3.59 | pKd [5, 24]: 3.88 | pKd [6, 24]: below the threshold | pKd [7, 24]: below the threshold | pKd [8, 24]: below the threshold | pKd [9, 24]: 5.42 | pKd [10, 24]: 5.23 | pKd [11, 24]: below the threshold | pKd [12, 24]: below the threshold | pKd [13, 24]: below the threshold | pKd [14, 24]: below the threshold | pKd [15, 24]: below the threshold | pKd [16, 24]: below the threshold | pKd [17, 24]: 3.64 | pKd [18, 24]: below the threshold | pKd [19, 24]: below the threshold | pKd [20, 24]: below the threshold | pKd [21, 24]: 4.37 | pKd [22, 24]: below the threshold | pKd [23, 24]: 4.49

PPRQRSETQV [HPV82-E6, Q9IR59]
pKd [1, 25]: below the threshold | pKd [2, 25]: below the threshold | pKd [3, 25]: below the threshold | pKd [4, 25]: 3.74 | pKd [5, 25]: 3.72 | pKd [6, 25]: below the threshold | pKd [7, 25]: below the threshold | pKd [8, 25]: below the threshold | pKd [9, 25]: 5.02 | pKd [10, 25]: 4.98 | pKd [11, 25]: below the threshold | pKd [12, 25]: below the threshold | pKd [13, 25]: below the threshold | pKd [14, 25]: below the threshold | pKd [15, 25]: below the threshold | pKd [16, 25]: below the threshold | pKd [17, 25]: below the threshold | pKd [18, 25]: 5.89 | pKd [19, 25]: 4 | pKd [20, 25]: below the threshold | pKd [21, 25]: 4.86 | pKd [22, 25]: below the threshold | pKd [23, 25]: 4.14

ELKAEDEVQI [DCHS2, Q6V1P9]
pKd [1, 26]: below the threshold | pKd [2, 26]: below the threshold | pKd [3, 26]: 3.92 | pKd [4, 26]: below the threshold | pKd [5, 26]: below the threshold | pKd [6, 26]: below the threshold | pKd [7, 26]: below the threshold | pKd [8, 26]: below the threshold | pKd [9, 26]: below the threshold | pKd [10, 26]: 3.59 | pKd [11, 26]: below the threshold | pKd [12, 26]: below the threshold | pKd [13, 26]: below the threshold | pKd [14, 26]: below the threshold | pKd [15, 26]: below the threshold | pKd [16, 26]: below the threshold | pKd [17, 26]: below the threshold | pKd [18, 26]: below the threshold | pKd [19, 26]: below the threshold | pKd [20, 26]: below the threshold | pKd [21, 26]: below the threshold | pKd [22, 26]: below the threshold | pKd [23, 26]: below the threshold
